B1: FC5: llama single domain VHH antibody binding TMEM30A, SEQ ID NO: 10, with myc and His tags (protein)
VHH: EVQLQASGGGLVQAGGSLRLSCAASGFKITHYTMGWFRQAPGKEREFVSRITWGGDNTFYSNSVKGRFTISRDNAKNTVYLQMNSLKPEDTADYYCAAGSTSTATPLRVDYWGKGTQVTVSS
modifications: myc and His tags

Key:
[1] = system: SV-ARBEC; assay: Fluorescent flow cytometry binding to SV40 transformed rat BBB endothelial cells; settings: SV40 transformed cell line vs primary cells
Procedure: (§1) The binding affinity of each molecule was evaluated in separate Fluorescent Flow Cytometry assay using freshly isolated rat BBB endothelial cells, SV40 transformed rat BBB endothelial cells (Caram-Salas, N., Boileau, E., Farrington, G. K., Garber, E., Brunette, E., Abulrob, A., and Stanimirovic, D. Methods in molecular biology 763, ed. 2010, 383-401) and to Hek293 cells transiently transfected with the previously identified target TMEM30A.

[2] = system: immortalized adult rat brain endothelial cells (SV-ARBEC); assay: In vitro transport rate across BBB endothelial cell monolayer; assay type: in vitro ADME; settings: compared with control antibodies 12F6A, CRL2434 and C37H; FIG. 3
Description: We used an in vitro BBB endothelial cell layer to model in vivo cross BBB flux rates for each FC5 containing protein. The in vitro model uses a monolayer of immortalized adult rat brain endothelial cells (SV-ARBEC) in a monolayer assay system validated for tightness with small molecules (Garberg, P., Ball, M., Borg, N., Cecchelli, R., Fenart, L., Hurst, R. D., Lindmark, T., Mabondzo, A., Nilsson, J. E., Raub, T. J., Stanimirovic, D., Terasaki, T., Oberg, J. O., and Osterberg, T. (2005) Toxicol In Vitro 19(3), 299-334). The methods for the in vitro flux rate determinations are nearly identical to those described in (Caram-Salas, N., Boileau, E., Farrington, G. K., Garber, E., Brunette, E., Abulrob, A., and Stanimirovic, D. Methods in molecular biology 763, ed. 2010, 383-401).

[3] = target: T1, mu pain receptors (Rattus norvegicus, UniProt P33535); assay: Hargreaves model of thermal pain, Dalargin alone or linked; assay type: in vivo; settings: for Fold potency compared to FC5-Dal in Hargreaves model: IV, based on molar ratio of Dalargin injected
T1 construct: from tissue; host or cells: rat brain (periaqueductal region), in vivo
Description: The Hargreaves model measures increased sensitivity to thermal pain induced by injection of Freud's adjuvant in a paw. The thermal pain can be suppressed upon binding of a six amino acid peptide Dalargin to the mu pain receptors expressed in the peri-aquaductal portion of the brain. […] Thus intravenously injected Dalargin must be linked to a receptor mediated transporter to allow cross BBB transport and suppression of pain. To evaluate the transport of Dalargin mediated by FC5 containing molecules across the BBB the Hargreaves animal model was used to compare the potency of various molecular forms of FC5 Vhh linked to Dalargin. The negative control molecule for FC5-Dalargin was EG2-Dalargin and for FC5-Fc-Dalargin was Fc-FC5-Dalargin.
Prior to intravenous (IV) injection each molecule was initially tested by intracerebroventricular (ICV) injection as a positive control to insure all linked molecules are functionally active and able to induce pain suppression. Both negative control and positive test molecules would be expected to suppress pain upon ICV injection as the molecules are injected directly into the cerebral spinal fluid and are able to diffuse to and block the periacquiductal mu pain receptors. […] Next each Dalargin labeled molecule and corresponding Dalargin labeled control protein were evaluated for efficacy upon IV administration. Initially, the efficacy of FC5-Dal versus the control (EG2-Dal) was compared. […] It is interesting to note that three doses of FC5-Dal at 7.5 mg per kg (mpk) per dose as needed prior to observing the initial pain suppression.
Chronic pain suppression is expressed as the percentage of maximum possible effect (% MPE). The value is based on the area under the curve for pain suppressed animal relative to the contralateral control paw over the time frame of measurement. The efficacy of molecules injected either ICV or IV is shown as a percent of maximum possible effect (% MPE) in the Hargreaves model. […] Dose in mpk for intravenous (IV) dosing values are indicated as per injection followed by the number of injections.

[4] = Circulating pharmacokinetics of FC5 containing molecules in rats; assay type: in vivo; settings: rat, intraperitoneal 3 mpk; for Beta-phase half life (h), assay format Fluorescence: AL680 labeled molecules, fluorescence from sera
Procedure: To understand the exposure of the BBB endothelium to each of the FC5 containing antibodies the pharmacokinetics the molecules were determined in rats. Animals were dosed intraperitoneally at 3 mpk with either the FC5 Vhh N-terminally (FC5-Fc) or C-terminally (Fc-FC5) fused to a human Fc domain. Concentrations of FC5-Fc or Fc-FC5 in the plasma were determined at various time points by ELISA. The results were analyzed to determine the beta-phase half-lives of each construct (Table II).
Half-life was determined by ELISA detection of the human Fc from rat serum or with AL680 labeled molecules and the fluorescence determined from the sera. No difference was observed between molecules in which the half-life was determined by fluorescence versus ELISA. Molecules were injected intraperitoneal at 3 mpk.

[5] = system: Primary rat BBB EC; assay: Fluorescent flow cytometry binding to primary rat BBB endothelial cells; settings: read-out: Affinity (nM), Primary rat BBB EC
Procedure: as §1

T1 sequence (P33535 whole entry): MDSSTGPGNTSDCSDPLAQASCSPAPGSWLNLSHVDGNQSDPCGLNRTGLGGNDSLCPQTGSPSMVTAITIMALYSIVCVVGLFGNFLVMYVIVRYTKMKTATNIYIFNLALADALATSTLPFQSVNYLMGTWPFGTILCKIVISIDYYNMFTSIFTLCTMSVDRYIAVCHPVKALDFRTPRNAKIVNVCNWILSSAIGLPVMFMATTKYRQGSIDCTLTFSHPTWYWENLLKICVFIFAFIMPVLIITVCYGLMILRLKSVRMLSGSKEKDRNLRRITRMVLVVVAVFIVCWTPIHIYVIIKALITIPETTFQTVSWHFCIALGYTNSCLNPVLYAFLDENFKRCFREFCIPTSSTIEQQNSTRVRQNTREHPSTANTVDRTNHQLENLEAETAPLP

| Molecule | fold weaker binding than to primary rat BBB endothelial cells [1] | rate of transport across in vitro SV40 rat BBB transformed endothelial cell line [2] | Fold potency compared to FC5-Dal in Hargreaves model [3] [fold] | average % MPE after the first 0.5 h ([3]; rat, single IV dose 0.5 mpk) [% MPE] | half-life when fused to a human Fc compared with FC5 Vhh alone [4] | Beta-phase half life (h), assay format Fluorescence [4] [h] | Beta-phase half life (h), assay format ELISA ([4]; ELISA detection of human Fc from rat serum) [h] | Kd [5] [nM] |
| --- | --- | --- | --- | --- | --- | --- | --- | --- |
| FC5-Fc | about 7 fold | increased rate of transport | 80 | 50 | significantly longer | 39.4 | 35.7 | – |
| Fc-FC5 | – | increased rate of transport | <0.1 | – | significantly longer | 38.6 | – | – |
| B1 | – | increased rate of transport | 1 | – | – | – | – | > 2000 |
